# According to article PMC3458870 (PLoS ONE, 2012):
# B1: truncated form of human PAH including the catalytic domain, hPAH(Gly103-Gln428) (domain or fragment)
# chain: GATVHELSRDKKKDTVPWFPRTIQELDRFANQILSYGAELDADHPGFKDPVYRARRKQFADIAYNYRHGQPIPRVEYMEEEKKTWGTVFKTLKSLYKTHACYEYNHIFPLLEKYCGFHEDNIPQLEDVSQFLQTCTGFRLRPVAGLLSSRDFLGGLAFRVFHCTQYIRHGSKPMYTPEPDICHELLGHVPLFSDRSFAQFSQEIGLASLGAPDEYIEKLATIYWFTVEFGLCKQGDSIKAYGAGLLSSFGELQYCLSEKPKLLPLELEKTAIQNYTVTEFQPLYYVAESFNDAKEKVRNFAATIPRPFSVRYDPYTQRIEVLDNTQ
# Molecular target: the molecule itself
# Test: SEC
protein,measurement,value
B1,stoichiometry N,2
